Test results reported in patent US20040002450A1, “Y17 - isolated molecules comprising epitopes containing sulfated moieties, antibodies to such epitopes, and uses thereof” (priority 2000, published 2004).

How the values were obtained:
[1] = tested on: washed platelets; assay: Ristocetin-induced agglutination of washed platelets after scFv preincubation; assay type: cell-based, human; conditions: for % inhibition / % agglutination: washed platelets; for % inhibition: ristocetin; for % agglutination: ristocetin = 100%
Description: Aggregation is determined in PRP due to the presence of thrombotic agents, while agglutination is determined in washed platelets. The effect of Y1 (scFv) on agglutination of washed platelets was tested at various concentrations of Y1. Platelets were pre-incubated with Y1 scFv, Y17 scFv, Y16-scFv, or a control TM-1 scFv for 4 min at 37° C. before being exposed to ristocetin, an inducer of platelet agglutination and aggregation.
Platelet concentrate in acid-citrate-dextrose (ACD) was obtained from a blood bank, platelets were isolated, washed once in buffer containing ACD and saline in a ratio of 1:7. The platelets were centrifuged at 800 g for 10 min after each wash and were resuspended in Tyrodes solution (2 mM MgCl2, 137 mM NaCl, 2.68 mM KCl, 3 mM NaH2PO4, 0.1% glucose, 5 mM Hepes and 0.35% albumin, pH 7.35) and count the number of cells.
For platelet aggregation studies, platelet rich plasma (PRP) and washed platelets were stirred at 500 rpm at 37° C. in whole blood Lumiaggregometer (Chronolog, Havertown, Pa.). The difference in light transmission through the platelet suspension and suspending medium was taken as 100% aggregation. The effect of Y1 on platelet aggregation was evaluated by addition of different concentration of Y1 before the addition of agonist, and the effect was recorded for four minutes.
The effect of Y17-scFv on vWF-dependent agglutination of platelets was tested at different concentrations of Y17.

[2] = tested on: primary leukemia cells; assay: FACS analysis of binding to primary leukemia cells of patients; design: species or system human
Description: Analysis of binding of scFv Y1 antibodies and anti-CD162 antibodies to diseased cells also illustrates that scFv Y1 has binding characteristics different from those of anti-CD-162 antibodies. […] Table F). Y1 binds to the leukemic cells in 10 of 12 samples. In contrast, anti-CD162 bound only 5 out of 12 samples. […] Thus, it may be concluded that, in leukemic cells, scFv Y1 binds to a ligand other than that recognized by anti-CD162.
Samples provided from hospitals. Patients sample 30 μl/tube. Add 5 μl/tube of CD33-APC (for AML) or CD19-APC (for B-CLL) or CD38-APC (for Multiple Myeloma). Add 5 μl/tube of CD45-PerCp and 5 μl of scFv-Y1 or control scFv-N31 or CD162-PE (KPL1). Incubate tubes 30 minutes at 4° C. with low shaking. Wash by adding 2 ml PBS and spin 5 minutes at 1200 rpm. Discard supernatant.
For a one step assay continue with the lysis step:
Add 500 μl BD Lysine solution diluted 1:10 with ddH2O (300 μl to patient sample). Vortex at high speed and incubate 12 minutes at 4° C. Wash as above. Discard supernatant. And add 500 μl PBS. The samples are read in the FACS using blood sample acquisition setup according to international standards.
For two or more assays: working buffer is PBS+1% BSA+0.05% sodium azide. Incubations and wash as above.
Lysis of the red blood cells is the final step in the assay, followed by resuspension with 500 μl PBS.

[3] = target: T1, platelet GPIbα (Homo sapiens, UniProt P07359); assay: Western blot/FACS of endoprotease-cleaved platelet GPIbα and glycocalicin; assay type: binding
T1 construct: endogenous in cells; host or cells: washed human platelets (blood-bank platelet concentrate)
Source text: (§1) Immunoblotting and endoprotease cleavage techniques were used to identify the epitope for Y1 on the surface membrane of platelets.
(§2) The enzyme O-Sialoglycoprotein endoprotease from Pasteurella haemolytica (Cedarlan CLE 100) selectively cleaves human platelet GPIb and specifically cleaves only proteins containing sialylated, O-linked glycans. […] This enzyme has been reported to cleave GPIb, which is heavily O-glycosylated, but not GPIIb-IIIa or other receptors on platelets. GPIbα was digested with O-Sialoglycoprotein endoprotease in order to further establish the binding of Y1 to the molecule.
(§3) Mocarhagin [Sigma L4515a] is a cobra venom metalloproteinase that cleaves platelet GPIbα specifically at a single site between residues glu-282 and asp-283, thereby generating two stable products: a ˜45-kDa N-terminal fragment (His1-Glu282), which is released into the supernatant, and a membrane-bound ˜95 kDa C-terminal fragment.
(§4) Cathepsin G (Sigma C4428), a neutrophil serine protease, cleaves glycocalicin at a first cleavage site between residues Leu-275 and Tyr-276 and at a second cleavage site between residues Val-296 and Lys-297. Cathepsin G treatment of glycocalicin generates two N-terminal fragments: a small N-terminal 42 kDa fragment (His1-Leu275), a large N-terminal 45 kDa N-terminal fragment (His1-Val-296), and corresponding ˜95 kDa C-terminal fragments. (FIG. 1).
(§5) For mocarhagin digestion, 10^8 washed platelets in TS buffer (0.01 M Tris, 0.15 M sodium chloride, pH 7.4) containing 1 mM calcium chloride were treated with 12 μg/ml mocarhagin (final concentration) for 1 hour at 22° C. and digestion was stopped by adding EDTA to 0.01 M.
(§6) 10^6 platelets in 0.1 M Tris buffer pH 7.4 containing 0.2% albumin and protease inhibitors (10 μM leupeptin, 0.24 mM PMSF) was incubated with 0.14 mg/ml O-Sialoglycoprotein endoprotease (final concentration) for 45 min at 37° C. and digestion was stopped by adding sample buffer and boiling. The sample buffer used contained 3% SDS, 12% glycerol, 50 mM Tris HCl, 2% β-mercaptoethanol, and 0.03% bromphenol blue.
(§7) For mocarhagin digestion, glycocalicin in TS buffer containing 1 mM calcium chloride was incubated with 10 μg/ml mocarhagin (final concentration) for 1 hour at 22° C. and digestion was stopped by adding EDTA to 0.01 M.
(§8) For cathepsin G digestion, glycocalicin in TS buffer containing 1 mM calcium chloride was incubated with 3.4 μg/ml cathepsin G (final concentration) for 4 hour at 22° C. and digestion was stopped by adding PMSF to 1 mM.

[4] = tested on: platelet GPIbα; assay: as above; assay type: binding, human; conditions: immunoblots and FACS
Source text: as §1, §2, §3, §4, §5, §6, §7, §8

B1: Y1 scFv: fully human scFv clone binding platelets and myelogenous leukemia cells; SEQ ID NO: 25, heavy chain CDR3 SEQ ID NO: 8 (protein, listed as Homo sapiens)
scFv: MKYLLPTAAAGLLLLAAQPAMAEVQLVESGGGVVRPGGSLRLSCAASGFTFDDYGMSWVRQAPGKGLEWVSGINWNGGSTGYADSVKGRFTISRDNAKNSLYLQMNSLRAEDTAVYYCARMRAPVIWGQGTLVTVSRGGGGSGGGGSGGGGSSELTQDPAVSVALGQTVRITCQGDSLRSYYASWYQQKPGQAPVLVIYGKNNRPSGIPDRFSGSSSGNTASLTITGAQAEDEADYYCNSRDSSGNHVVFGGGTKLTVLGAAAEQKLISEEDLNGAA
Question: What does the source list for B1?
Answer: effect on ristocetin-induced agglutination of washed platelets (in words) ([1]; 4 μg/ml): No inhibition; effect on ristocetin-induced agglutination of washed platelets (in words) ([1]; 12.5 μg/ml): only partial inhibition; effect on ristocetin-induced agglutination of washed platelets (in words) ([1]; 25 μg/ml): inhibited agglutination; % inhibition ([1]; scFv 4 μg/ml): 8%; % agglutination ([1]; scFv 4 μg/ml): 92%; % inhibition ([1]; scFv 12.5 μg/ml): 33%; % agglutination ([1]; scFv 12.5 μg/ml): 67%; % inhibition ([1]; scFv 25 μg/ml): 77%; % agglutination ([1]; scFv 25 μg/ml): 23%; leukemia patient samples whose leukemic cells are bound ([2]; 12 patient samples, FACS): 10 of 12; % Positive ([2]; AML patients): 80%; Number Positive ([2]; AML patients): 60/75; % Negative ([2]; B-ALL, Bone Marrow): 67%; % Positive ([2]; B-ALL, Bone Marrow): 33%; Number Positive ([2]; B-ALL, Bone Marrow): 3/9; % Negative ([2]; B-CLL, Peripheral Blood): 26%; % Positive ([2]; B-CLL, Peripheral Blood): 74%; Number Positive ([2]; B-CLL, Peripheral Blood): 17/23; % Positive ([2]; B-Leukemia patients): 67%; Number Positive ([2]; B-Leukemia patients): 29/43; % Negative ([2]; B-Lymphoma, Peripheral Blood): 38%; % Positive ([2]; B-Lymphoma, Peripheral Blood): 62%; Number Positive ([2]; B-Lymphoma, Peripheral Blood): 5/8; % Positive ([2]; Multiple Myeloma patients): 100%; Number Positive ([2]; Multiple Myeloma patients): 16/16; % Negative ([2]; Pre-B-ALL, Bone Marrow): 0%; % Positive ([2]; Pre-B-ALL, Bone Marrow): 100%; Number Positive ([2]; Pre-B-ALL, Bone Marrow): 3/3; binding to cathepsin G fragments of glycocalicin ([3]; Western blot): bound to the larger N-terminal fragment (His 1-Val-296), but not to the smaller N-terminal fragment (His1-Leu275); binding after mocarhagin treatment of washed platelets ([3]; Western blot of platelet lysates): binding of Y1 to the N-terminal ˜45 kDa tryptic fragment; binding to washed platelets after O-Sialoglycoprotein endoprotease [4]: abolishes binding
